Experiment: soluble on expression in E. coli; label from the status in PepcDB or PDB records

Sequence	soluble on expression in E. coli
MAKVKRRDLLKAGAALAAAGTLGKGFAQEFYASPPTLLPRSRAPRVVVVGGGWGGTTVARKVKQQNPGVEVVLVEQKPIFMSCPMSNLFLAGVKPLEWLVFDYTNVVKDGVIFVQEKVLEINRDRRLVRTTGGYLAYDFLVLAPGIDYMYEAIPGYEEAKHFLPVGFKPFEHIALRRMLDRFDETGGELVMYIPPPPYRCPPGPYERAAMLAWRLKTKGVKGKVIVLDANPQPLAKAPGFLAAYNELYKDYLEYQPNMRITGLDYEKKVVRTELGDYPFTLANVIPPMKAAEIVRQAGLGERWANVRIPYFLSEADDRVYLVGDITGNTPYPKSGMIAYVSGTIVARHLTERLKGKPLAEIPPELPTNICYSFVDSEEAIWVSANYSWDEAEKRIKAQSQVDNQRSKANGEAAIGWALGLWNDMFGPA	soluble
MKTTPVTPDDLQRSVIAVPPLARHADLTLNPAANQAVLRHLEAGGVRSVMYGGNANFYHVQVSEYAQLLDFLAESAGPDTWVLPSAGPDYGKLMDQAAILRTRDFPTAMLLPMSFPYTDAGLADGIRRFSDAMDRPAVVYIKSSDYLAPATVARLIGEGRIAALKYAVVREDPARDPYLDALLKEVDPRWIVSGIGERPAIVHFRQFGLRSFTSGSVCVAPRGSMRLLHLLHQGDFEAAEQVRAAYIPLEDCRDGISPIRVLHDAVTLAGVADMGPMLPLLSGLDPADRERVAPVARALLAGDRQ	not soluble
TPDFTWKTSLNFSANKNKIVELHEELKEFVYGPTSFSSSYAMKLVKGGSIGDIYGKAFIRDEAGSIVYGTDGDYKGLPLVEGDGNTVKVGNANPDFMLGWNHSFSYKGFSLYFLLDWRYGGEVLSQTQAEMDLYGVSKATAQARDKGYVSLEGQQISDVKGFYKNVVGGRAGVTEYYMYDATNLRLREISLSYSFPRKWVQKTNCLKDLQLSFVARNLCFLYKKAPFDPDLVLSTGNDNQGIEVFGMPTTRSLGFTLTCEF	not soluble
MSLKTGRFDQAQADAFAERLLSVLNDAALTLMISIGHRTGLFDVMDKLDFASSEVIAEAAGCNERYVREWLNALVVGGIVDYDAHTKAYQLPAEHASFLTRKSSPQNMAVVAQFIPVLAYVENGIVDAFKHGGGVPYEAYHRFHEVMAEESGQTILSSLTDKILPMVHGLVDKLNQGIQVLDIGCGYGRALILMAKTYPQSQFTGYDLCDETIAHAVHSAKKNKIQNIHFEKMDLSVWDEQEKYDLITSFDVIHDQAKPAQVLSNVFKALKPHGIFLMQDIKTSSDVAGNVHHPLGALIYTISCMHCMTVSLSQNGLGLGAAWGEELAEKMLVEAGFGKIEKHYLEHDIMNTYYVMRKEGHHHHHH	soluble
MPTPDFVLQLREKIGNDPLFLPGVTAVVIKDVPEGAPITAVPEVLLVKRADNGEWTPVTGIVDPGEQPHSAAVREVKEETGLDVTVEALLGVGAVGPVTYPNGDVSHYMDTAMRCEVVGDSTPRIGDDENTEVRWFSVMQMPPMKPRFRLVVGDAVAQLRRPEGFRPRMGYEKRERRR	not soluble
MGSDKIHHHHHHMTLEQLLMFNTVALAGSLKAASDKLHKTQPAISQSIKQLESQLDVVLFDRQGYRLALTQEGRKLLQYAQRVLNEAQEMRQVAKHLAIGNEASITLAFEASFNLARILPMLERTQLEFPHTQIILKQEYLTGALEALNQGKADIAISAGGIESMRSNHFELGFLFSGSLLDVASPRLLSRYPSLSHVKELVNEYQIVIQDTGTGTANIEFGVQAGQRRWYVNDFYTKKMLIQSGMGWGKLPYYMVEEALANGSLHPLELKERQNLIQLDYYVMRRPQSPLGPVAQALWENLVQLATKQS	not soluble
MIPLMHDFEGETVLVVGGGSVGARKARTFATEASVVVLSPEFGDRTFADAEKVRAAPTPEDATDWVERTDPALVVAATDDSDLNGAFSTAAAEHGALVNRTDDHGDQSFGNIVVPATVRDDPVTLAIATGGRAPALSKHLRERFEDEFGNAGLMADLVGDLREDLRDRGVPPAKRRDAVRFVVRSREVWKALDSGRSKGEQVARDVIGELPGDQT	not soluble
MGSDKIHHHHHHMFKDYQPKKGFDEYFSSDDFLPRSSLEPLLTSLGEMGLHQLNISHEIARKLLLRHGATFRLNDSGSKGSERILPFDPLPRVIGSLEWLGLERGLIQRLEAIDLFLADVYGKQQIINDGIIPRDFIESSDGWRPQMKGFVLPLGKWCHVSGLDLIRDGNGEWLVLEDNLRCPSGVAYFLENRLVMKRIFPSLFNGRVVRPIEDYPSYLLKSLQELAVWTDTPKVVLLTPGVFNSAYFEHSYLAQQMGIQLVEGSDLVCQNQNVYLKTTSGIKKVDVIYRRIDDDYLDPKFFRKDSMLGVPGLIDVLKKGRVAIANAPGTGLADDKLIYTFVPEMIRYYLKEEPIINNVKTYVCARSSDLSFVLENLGKLVVKSVSEAGGYGMLIGPHSSQIDIDKFSAKIKANPRNYIAQPTLDLSTVPSLSDGEVYPCHVDLRPYVLRGKNTWVSPGGLTRVALKRDSLIVNSSQGGGCKDTWVVG	not soluble
YGQYLSIRKTETLLRNELSKLTPDTVEELSSKLPENSRSLVITYMRQVLDARDTPAQVQRLLANFEIAADKDLAISKTLTK	not soluble
MALQSSVRAFKKPPRPLVDEVRFLRSWIEKPLHMGAVMPSGKLLARTMARYVDIQSDGPVIELGPGTGAITNALVEHGVDQKRLVLLEFDPGFCALLRERFPLAKVVQGDAYRLRDSLWDALEIPATAVVSGLPLVTKPMLTRMKLIRDAFTLLEPGAPFVQFTYSVAPPIPKSLPGVSTEGSERIWMNVPPARVWVYRKRLEHHHHHH	not soluble
MSLKIIDGNIASPLGFSADGLHAGFKKRKKDFGWIVSEVPASVAGVYTTNKVIAAPLIVTRESVKKAQKMQALVVNSGVANSCTGLQGMEDAYTMQKWTATKLKIAPELVGVASTGVIGDLMPMDTLQKGLSKLVVNGNSDDFAQAILTTDTKVKTVAVTEQFGRDEVTMAGVAKGSGMIHPNMATMLAFITCDAVISSETLQLALSQNVETTFNQITVDGDTSTNDMVLVLSNGCTLNKEILPDTPEFDKFSAMLHFVMQELAKKIAKDGEGATKLIEVEVINAPNSLDACMMAKSVVGSSLVKTAIFGEDPNWGRILAAVGYAGVDVPVDNIDIYLADIPVMLASSPVDFDEEDMQDVMRADTIKIIVDLHAGDSVGKAWGCDLSYDYVKINALYRTEGHHHHHH	soluble
MLTDLEKNAIRDHYQNIGKNLPGFRPRASQREMIAAVANAFSRTLAREEGGEPPKREGESIAVIEGPTGVGKSLAYLLAGGIMAQTRGKRLIVSSATVALQEQLVDRDLPFLVEKSGLELTFALAKGRGRYLCPYKLYRLTQSNAQQNLLGFEAPAVLWDSKPKPEELKLLRDIADEFSARRFNGDRDTWPEKIDDAIWLKVTNDRHGCLKTACPNRPECPFYLARDVLETVDVVVANHDLLLADISMGGGVILPAPENSFYCIDEAHHLPKKALSRFAAEHSWNIAVWTLEKLPQLTGKIAALTDKAELANLADEAAASLLDSLHEWQFHLAEEPSLSLGVSENDRRTNSEPTWLWEDGKIPEGLETTVSNTAIAARSLLKHVIGLNDALSAARREKEQDGALLDRLTSEFGLFIARIEQISAVWDLLSTVPLEGEEPLAKWITRRADDKNDYIFNASPISSASHLANSLWRRAAGAVLTSATLQSLGNFNLMLRQTGLQWLPETTTLALKSPFDFEKQGELYIPPIYASPKDPEAHTAAVIEWLPKLISPTEAIGTLVLFSSRKQMQDVALRLPGDYLPLLLVQGELPKAVLLQKHHRAIEEGKASIIFGLDSFAEGLDLPGTACVQVIIAKLPFAMPDNPIEKTQNRWIEQRGGNPFIEITVPEAGIKLIQAVGRLIRTEQDYGRVTILDNRIKTQRYGQQLLAGLPPFKRIG	not soluble
IDFHRGTQGEGRVEVELSQPGAVINVHSHGSRLLVEFMKAYLPPNLERRLNVLDFATPVQSVETVARDGNVQMIIEPKGRWEHTSWQTGTSFVVEIRPMAEAED	not soluble
MGSDKIHHHHHHMETIGQTLAKKDNHKYDTEKMTQAILSDQEIANFIAAHHLSKEQIKISLPKFNQYRLERTRFENHDQAYIAKGYQPLLVMNEGYADVAYKETKELIAAKKTQAISDRINVVSLPRSYKNISFDDINLDDVKRLDVFKRVADFVEQYPNPEQKGLYLYGDMGIGKSYLMAAMAHELSEQRGAATTLLHFPSFTIDVKNAINTGTVKKEIDAVKTADILILDDIGAEQSTSWIRDEVLQVILQYRMLEELPTFFTSNYSFKDLEAKLANIKGSDETWQAKRVMERIRYLAKEIHLEGENRR	not soluble
MSVKHHDVIIIGAGAAGLMCAATAGYRGRDVLVLDNAKQAGRKILISGGGRCNFTNLKVEPANFICGNPHFVKSALARYPSQQFIELVERHGIEYHERDHGQLFCNDSAKEIVTMLLTECEWAGVSIKLRTDILSVGKNEAGRFELNTSNGELSCDSLVIATGGLSMPKLGATPYGYQLAEQFGLKVLPTHAGLVPFTWHSEDKIRFEPLSGIAVPSRITAKDGTAFSEALLFTHRGLSGPAILQISNYWKAGETIKINLLPNMDAAQAIEQQLAAHPKQSLRNTLSLWLPKRLVEVLFDEVLLNKALNQLVHAERAKLVDDLHRWTVLMNGTEGYRTAEVTLGGVDTHELSSKTMEAIKVPGLFFIGEVMDVSGWLGGFNFQWAWASGVAAGKAV	not soluble
MGSDKIHHHHHHMNTRLKDTSGHSPIDPRILDEAAAWLMQLHASTVTDMERNAWEQWRLRSPQHRQAWERAEQLMNKMGGLPPALSMAALTHPGGNNRRAAIKKLALLMTALPASWAAWRVTPWEAWMAEYRTMVSEQREIELADGSQVRLNTATSIDVRFNAVQRLIVLHTGEILIQTAADNAVTPRPFQVLTAEGRLYALGTRFTVRQGEERSHVAVFDGAVAIHPKSGDSGVAQVLHAGNKTVFTAEAIEVSRPADDTDIAWTQGMLLADKMHLTDFTDELSRYRQGIVRCDPVLADLRISGAFPIRDTDRTLAMLQATYPVRIVYRTPYWVTLVPR	not soluble
MNLDDKSLFLDAMEDVQPLKRATDVHWHPTRNQRAPQRIDTLQLDNFLTTGFLDIIPLSQPLEFRREGLQHGVLDKLRSGKYPQQASLNLLRQPVEECRKMVFSFIQQALADGLRNVLIIHGKGRDDKSHANIVRSYVARWLTEFDDVQAYCTALPHHGGSGACYVALRKTAQAKQENWERHAKRSR	soluble
MYDFAIIGSGVAGATLAKELRYRYKVAVIEKGKKPSYASEGKNVEINYVYGLGGSGVYSLGNAIKTEIKGYKIDKDIYKEIWEELKIKAPKDDFLNDIDKAFIELGFEKMEKFIDFDRCNKCGECARKICKAKWTPLNYLKESNANIITEFNIKAINYSNYYEILDDKGRKIKAKNLIISAGGINSPRILKKMIDDENIGKNLFIDTFVTVGGILEDSYLNKDISMLVYKKYKNFMLATHYSKLLINEIKKDYKDVKEKDIVGIMIKIKDENNGVVLDNDVKKEITKEDFKTLARGICKATKYLYKLGVDDIYTTIPRGSHPGGSLSLVVDEFEVREGLYVCDASLFKEALGVPPIVSIIALSKKFVREILLEHHHHHH	not soluble
MQMAGFGLIAKLRNKIRVKPNNKIQIGKNTRIRYCDIYVNGNNNQLIIHNGANLKGVSIELNGNNCLLEIGENCVIGENCFLSCRESGTKLVIGKECMFSRNVKLMTSDGHDILRDGKRINPAKSIYIGSHVWLADNVTILKGVDIGSGSIIGINSTVTKSIGQYCIAAGNPARKIKDNISWNTTLSY	not soluble
MGHHHHHHSHMAPPRIGTHNGTFHCDEALACALLRLLPEYRDAEIVRTRDPEKLASCDIVVDVGGEYDPRRHRYDHHQRSFTETMSSLSPGKPWQTKLSSAGLIYLHFGHKLLAQLLGTSEEDSMVGTLYDKAGFKRAMDLVQEEFLQRLDFYQHSWLPARALVEEALAQRFQVDPSGEIVELAKGACPWKEHLYHLESGLSPPVAIFFVIYTDQAGQWRIQCVPKEPHSFQSRLPLPEPWRGLRDEALDQVSGIPGCIFVHASGFIGGHRTREGALSMARATLAQRSYLPQIS	soluble
